Values of other authors as cited in publication PMC5694535.
Like-named read-outs stand apart in the source and are kept apart here.

Experiments:
[1] = target: Clathrin heavy chain TD (UniProt P11442)
[2] = target: Clathrin heavy chain TD (UniProt P11442); remark: listed apart in the source
[3] = target: AP2 beta2 appendage (UniProt P63010)
[4] = target: AP2 beta2 appendage (UniProt P63010); assay: ITC

UniProt P63010, sequence (P63010 701-937): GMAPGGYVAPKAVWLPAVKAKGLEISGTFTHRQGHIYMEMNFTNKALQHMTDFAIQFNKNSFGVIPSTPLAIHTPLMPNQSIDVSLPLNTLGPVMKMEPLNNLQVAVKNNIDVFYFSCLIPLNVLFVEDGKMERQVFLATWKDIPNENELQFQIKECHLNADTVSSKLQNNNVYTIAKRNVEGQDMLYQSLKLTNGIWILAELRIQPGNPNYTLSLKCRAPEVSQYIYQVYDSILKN
UniProt P11442, sequence (P11442 1-363): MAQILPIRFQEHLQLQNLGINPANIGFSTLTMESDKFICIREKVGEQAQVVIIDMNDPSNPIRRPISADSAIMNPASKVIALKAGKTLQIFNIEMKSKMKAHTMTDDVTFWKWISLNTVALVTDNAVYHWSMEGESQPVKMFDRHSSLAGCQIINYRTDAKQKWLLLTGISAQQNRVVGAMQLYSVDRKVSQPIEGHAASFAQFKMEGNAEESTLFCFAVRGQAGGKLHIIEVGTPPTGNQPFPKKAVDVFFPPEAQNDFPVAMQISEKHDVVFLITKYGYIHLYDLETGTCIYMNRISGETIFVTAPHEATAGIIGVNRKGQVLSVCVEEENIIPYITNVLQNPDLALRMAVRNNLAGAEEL

AP180 DLL/DLF motifs (from UniProt Q05140)
Kd [1]: 200 µM

AP180 peptide (from UniProt Q05140)
Kd [2]: 850 µM

ARH peptide (from UniProt Q5SW96)
Kd [3]: 2.4 µM

beta-arrestin
Kd [4]: 2.6 µM
